Assay results taken from patent publication US8404644B2, “Agents with angiogenic and wound healing activity” (Meat & Livestock Australia Limited, priority 2007, dated 2013).

Assays:
[1] = test system: full thickness 12 mm wound; experiment: Wound healing assay (Example 3.6); assay type: in vivo, male Lewis rats; settings: for Wound areas: mg/wound: Wound heal 1 0.01, Wound heal 2 0.1, Wound heal 3 1.0, Aloe vera 20
Experimental: Thirty male Lewis rats were divided into 5 groups of 6 rats as outlined below in Table 7. Rats were age and weight matched. Rats were permitted rodent diet and water ad libitum throughout the study.
The animals were weighed two days before the start of the trial and weights grouped from lightest to heaviest. Animals were then randomly assigned to groups based on body weights, using 5×5 Latin squares so that group means were as similar as possible.
Approximately 30 minutes before wounding, each animal was given a subcutaneous injection of Temgesic at the base of the neck (0.075 mg/kg body weight). Each animal was anaesthetised using 3% halothane in oxygen. Once the pedal reflexes had been abolished, the animals were shaved from the base of the skull to the hind limb area using electric clippers. The skin on each rat was disinfected using 0.5% chlorhexidine in 70% ethanol. For each animal, the distance from the base of the skull to the top of the hip joint was measured and the wound position marked with a black felt tip pen, 6 cm below the base of the skull along the spinal axis.
Using asceptic techniques a full thickness incision was made at this position using a sterile 12 mm biopsy punch. Any bleeding was removed using cotton swabs. Care was taken that the punch was dry and that no debris (eg., skin, hair) entered the wounds. […] After photography of each wound using a Canon Digital EOS 20D camera with a F2.8 Macro lens, an aliquot of the sample was applied to the wounds on the rats in Groups A, B, D and E using a Gilson Microman CP 100 positive displacement pipette. The biopsy punch was wiped inside with a swab soaked in sterile saline to remove any tissue fluids and/or debris. The punch was then immersed in 70% ethanol before use on the next animal.
For applications and photographs after day 1 the animals were restrained without being anaesthetised.
(§1) Body weights were measured on days 1, 3, 5, 7, 9, 11, 13, 15, 17, 19, 21 and 23 and deviations from original body weights (on day 1) calculated for each animal. On the same days, photographs were taken using a Canon Digital Eos 20D with a F2.8 Macro lens. Photographs were downloaded and wound areas measured using NIH Image J 1.633u software (National Institutes of Health (NIH), Rockville Pike, Bethesda, Md., United States). A laser speckle image was also taken at the same time as each space photograph was taken. Animals were weighed every second day when the photographic record of wound closure rate was also made.
The redness and swelling of each wound were individually scored from visual observation. These were scored on a scale of 0-3 as follows:
Descriptive statistics were evaluated. […] Major analyses were performed on all data points collected. Preliminary analyses were undertaken on control wounds only using t-tests. Univariate ANOVAs were used to assess differences between treatment and controls and samples nested within treatments. A separate ANOVA assessed whether there was a dose response using the treatment samples only. Assumptions for normality were tested using q-q plots on studentized residuals and heterogeneity of variances were tested using Levene's tests. SPSS 11 for Mac OSX was used for assumption testing and statistical analysis.

[2] = Body weight during wound healing assay (Example 3.6); assay type: in vivo, male Lewis rats; settings: PBS control returned by day 11
Experimental: as §1

elastase I = molecular target: T1, elastase I (Sus scrofa, UniProt P00772); experiment: Chaperone activity: protection of elastase I from heat denaturation; assay type: biochemical; settings: boiling water bath for 30 seconds
T1 construct: purchased Worthington Biochemical Corporation 2280
Experimental: Bovine crystallin fractions were tested for ability to protect the proteases elastase I, trypsin and chymotrypsin from heat denaturation. Briefly, the proteases were heated in a boiling water bath for 30 seconds in the presence or absence of the crystallin fractions.

rat aortic ring = experiment: Rat aortic ring angiogenesis assay (Example 4.3); assay type: cell-based, Lewis rat; settings: for % of Control: microvessel growth
Experimental: Four separate studies were carried out to determine the angiogenic effect of crystallin preparations. Each sample was assayed in triplicate. A positive control (VEGF) and a vehicle control containing PBS was also run in triplicate. […] Preliminary statistical significance was assessed with an independent Student t-test at α<0.05. Graphical representation of averages +/− standard errors were determined.
The first study investigated the angiogenic potential of bovine fractions prepared by gel filtration analysis as described in Example 3.2. As described in that Example, the alpha fraction contained αA and αB crystallin, the β H fraction contained all β crystallins, the β L1 fractions contained a sub-fraction of beta crystallins and a high content of βB2 crystallin and beta B3 crystallin and the beta L2 fraction contained only βB2 crystallin and βA3 crystallin.
The second study investigated the angiogenic potential of purified crystallin proteins. Briefly, βB3 crystallin was prepared by heating (97-99° C. for 3 minutes, supernatant collected by centrifugation) and was essentially homogenous. Alpha A crystallin and αB crystallin samples were prepared by ion exchange chromatography as described above and were also essentially homogenous. The Wound Heal 1-3 preparations were also tested in this study.
The third study investigated the angiogenic potential of ovine crystallin proteins compared to their bovine equivalents. Both bovine and ovine crystallin proteins were purified essentially to homogeneity by RP. HPLC using a C4 column, as described below in Example 5. Homogeneity was confirmed by SDS-PAGE. The effect of elastase I treatment of βB2 crystallin was also investigated by comparing the angiogenic potential of intact βB2 crystallin (i.e. undigested) with elastase I digested βB2 crystallin. Elastase I treatment releases the N-terminal and C-terminal extensions of the crystallin protein leaving a globular protein that is monomeric.
In the final study, ovine βB2 crystallin was tested alone or in combination with indoleamine 2,3-dioxygenase (IDO) and ovine alpha B crystallin was tested alone or in combination with tryptophan dioxygenase (TDO)
Briefly, in each study, a single Lewis rat was euthanised and its aorta transferred to a 15 mL Falcon tube containing 10 mL of MCBD-131 medium and stored on ice. After transferring the aorta to a 92×17 mm petri dish containing 10 mL of ice cold MCDB-131, the outer fatty tissue was removed under an Olympus SZ-60 Dissecting microscope. This was undertaken with fibre optic lamp illumination. The aorta was then cut into sequential rings approximately 2 mm in size. Connective tissue was removed with micro scissors and forceps from the outside of the individual rings. Clean rings were stored in a separate petri dish in sterile MCDB-131 medium. Rings were pre-incubated overnight at 37° C. in an atmosphere of 97% air/3% CO2.
To prepare gel sandwiches, 75 mg of fibrinogen was added to 25 mL MCDB-131 medium and shaken gently on a rocker roller for 5 minutes. 3 ml of MCDB-131/fibrinogen solution was added to a 15 mL Falcon tube, followed by 10 μL of thrombin and quickly mixed. A 0.4 mL volume of this fibrinogen-thrombin solution was added to each well on a 24 well plate, 6 wells at a time. Aortic rings were then placed on the setting gel, pushed gently into the gel and left for 45 minutes. These steps were then repeated so each ring was covered with 0.4 mL of gel. Gels were left to set at room temperature. […] The plate was then placed in incubator (37° C., 97% air/3% CO2).
Culture plate were examined daily for signs of infection (fungal growth or yellowing of media) in the wells using an inverted microscope. The growth of microvessels from their perimeters was also observed. Digital photographs of each well were taken seven days after plating using a Pixera PVC-100C digital camera mounted on an OLYMPUS CK-12 microscope and stored on a Macintosh Computer. […]

[3] = summary of second and third study

T1 sequence (P00772 27-266): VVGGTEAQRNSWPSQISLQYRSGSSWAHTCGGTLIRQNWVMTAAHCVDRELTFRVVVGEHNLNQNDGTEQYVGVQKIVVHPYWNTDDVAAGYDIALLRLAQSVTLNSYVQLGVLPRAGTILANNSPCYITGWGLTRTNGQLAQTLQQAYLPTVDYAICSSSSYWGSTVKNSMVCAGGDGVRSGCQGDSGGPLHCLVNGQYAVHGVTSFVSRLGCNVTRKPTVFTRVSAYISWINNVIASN

B1: Wound Heal 1: bovine βB2 crystallin, fractionated at pH 5.3 on Sephacryl 300 HR; Group B of Example 3, 0.01 mg/wound (protein)
chain: ASDHQTQAGKPQPLNPKIIIFEQENFQGHSHELNGPCPNLKETGVEKAGSVLVQAGPWVGYEQANCKGEQFVFEKGEYPRWDSWTSSRRTDSLSSLRPIKVDSQEHKITLYENPNFTGKKMEVIDDDVPSFHAHGYQEKVSSVRVQSGTWVGYQYPGYRGLQYLLEKGDYKDSGDFGAPQPQVQSVRRIRDMQWHQRGAFHPSS
[1]; Day 1 (=100)
  Wound areas: 100
[1]; Day 3
  Wound areas: 86
[1]; Day 5
  Wound areas: 75
[1]; Day 7
  Wound areas: 69
[1]; Day 9
  Wound areas: 54
[1]; Day 11
  Wound areas: 32
[1]; Day 13
  Wound areas: 18
[1]; Day 15
  Wound areas: 13
[1]; Day 17
  Wound areas: 8
[1]; Day 19
  Wound areas: 4
[1]; Day 21
  Wound areas: 1.7
[1]; Day 23
  Wound areas: 1.4
[1]; day 5
  mean wound area: 123 ± 14.7 mm²
[1]; day 5, p=0.045 (Wound Heal 1), p=0.008 (Wound Heal 2)
  wound area at day 5, statistical significance: significantly smaller
[1]; rat, in vivo
  healing rate compared to Control group (PBS), in words: slightly faster healing rate than the reference group over the first 7 days
[2]
  day by which mean body weight had returned to the starting (pre-wounding) weight: ≤ 14 days
Elastase I
  chaperone activity: protection of elastase I from heat denaturation (in words): not
Rat aortic ring; second study, 200 μg/mL
  % of Control: 94.52%

B2: Bovine βB2 crystallin (non-elastase treated): intact bovine βB2 crystallin prepared by RP HPLC on C4 column (protein, UniProt P02522 2-205, looked up)
Beta-crystallin B2: ASDHQTQAGKPQPLNPKIIIFEQENFQGHSHELNGPCPNLKETGVEKAGSVLVQAGPWVGYEQANCKGEQFVFEKGEYPRWDSWTSSRRTDSLSSLRPIKVDSQEHKITLYENPNFTGKKMEVIDDDVPSFHAHGYQEKVSSVRVQSGTWVGYQYPGYRGLQYLLEKGDYKDSGDFGAPQPQVQSVRRIRDMQWHQRGAFHPSS
Rat aortic ring; [3]
  angiogenic activity (in words): not angiogenic
Rat aortic ring; third study, 100 μg/mL
  % of Control: 93.4%

B3: Ovine βB2 crystallin: intact ovine βB2 crystallin prepared by RP HPLC on C4 column (protein)
chain: ASDHQTQAGKPQPLNPKIIIFEQENFQGHSHELNGPCPNLKETGVEKAGSVLVQAGPWVGYEQANCKGEQFVFEKGEYPRWDSWTSSRRTDSLSSLRPIKVDSQEHKITLYENPNFTGKKMEVIDDDVPSFHAHGYQEKVSSVRVQSGTWVGYQYPGYRGLQYLLEKGDYKDSGDFGAPQPQVQSVRRIRDMQWHQRGAFHPS
Rat aortic ring; [3]
  angiogenic activity (in words): not angiogenic
Rat aortic ring; third study, 100 μg/mL
  % of Control: 103.5%

B4: Bovine αB crystallin: bovine αB crystallin prepared by ion exchange chromatography, essentially homogenous (protein)
chain: MDIAIHHPWIRRPFFPFHSPSRLFDQFFGEHLLESDLFPASTSLSPFYLRPPSFLRAPSWIDTGLSEMRLEKDRFSVNLDVKHFSPEELKVKVLGDVIEVHGKHEERQDEHGFISREFHRKYRIPADVDPLAITSSLSSDGVLTVNGPRKQASGPERTIPITREEKPAVTAAPKK
Elastase I
  chaperone activity: protection of elastase I from heat denaturation (in words): able to protect elastase I from heat inactivation
Rat aortic ring; second study, 200 μg/mL
  % of Control: 85.21%

B5: Tryptophan dioxygenase TDO: tryptophan hydrolyzing enzyme (protein, UniProt P48775 1-406, looked up)
Tryptophan 2,3-dioxygenase: MSGCPFLGNNFGYTFKKLPVEGSEEDKSQTGVNRASKGGLIYGNYLHLEKVLNAQELQSETKGNKIHDEHLFIITHQAYELWFKQILWELDSVREIFQNGHVRDERNMLKVVSRMHRVSVILKLLVQQFSILETMTALDFNDFREYLSPASGFQSLQFRLLENKIGVLQNMRVPYNRRHYRDNFKGEENELLLKSEQEKTLLELVEAWLERTPGLEPHGFNFWGKLEKNITRGLEEEFIRIQAKEESEEKEEQVAEFQKQKEVLLSLFDEKRHEHLLSKGERRLSYRALQGALMIYFYREEPRFQVPFQLLTSLMDIDSLMTKWRYNHVCMVHRMLGSKAGTGGSSGYHYLRSTVSDRYKVFVDLFNLSTYLIPRHWIPKMNPTIHKFLYTAEYCDSSYFSSDESD
Rat aortic ring; forth study, 100 μg/mL
  angiogenic activity (in words): stimulatory
  % of Control: 106.2%
